Measurements taken from the supplement of paper PMC9112550, “Optimization of the antimicrobial peptide Bac7 by deep mutational scanning” (BMC Biology, 2022).

Tested on: Escherichia coli TOP10
Assay: shrunken log2 fold change of peptide-encoding DNA abundance (4.5 h post-induction vs induction); higher = less antimicrobial activity (less host growth inhibition)
Conditions: time post-induction: 4.5 h; library: site-saturation at positions 5, 18, 19, 20
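Further: peptides expressed intracellularly from a pBAD plasmid library in pooled LB shake-flask culture, induced with 0.3% L-arabinose, DNA abundance read by NGS, three biological replicates, DESeq2 with apeglm shrinkage.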

Sequence	shrunken log2 fold change
RRIRQRPPRLPRPRPRPAEEPRP	0.0112
RRIRMRPPRLPRPRPRPEVRPRP	0.438
RRIRDRPPRLPRPRPRPFRVPRP	-0.101
RRIRNRPPRLPRPRPRPHGAPRP	0.245
RRIRWRPPRLPRPRPRPYALPRP	0.0509
RRIRLRPPRLPRPRPRPEPHPRP	0.324
RRIRDRPPRLPRPRPRPCNAPRP	0.0759
RRIRPRPPRLPRPRPRPKIEPRP	0.0313
RRIRCRPPRLPRPRPRPCYRPRP	-0.256
RRIRMRPPRLPRPRPRPSSIPRP	-0.0701
RRIRGRPPRLPRPRPRPNLMPRP	0.144
RRIRYRPPRLPRPRPRPTQGPRP	0.0351
RRIRDRPPRLPRPRPRPDITPRP	0.282
RRIRQRPPRLPRPRPRPADTPRP	-0.128
RRIRWRPPRLPRPRPRPMQQPRP	0.056
RRIRERPPRLPRPRPRPFGEPRP	-0.122
RRIRCRPPRLPRPRPRPPNGPRP	-0.0741
RRIRYRPPRLPRPRPRPWFMPRP	-0.356
RRIRPRPPRLPRPRPRPFMEPRP	-0.554
RRIRHRPPRLPRPRPRPKDIPRP	-0.504
RRIRCRPPRLPRPRPRPYDFPRP	-0.894
RRIRIRPPRLPRPRPRPQQNPRP	-0.318
RRIRCRPPRLPRPRPRPQAAPRP	0.225
RRIRSRPPRLPRPRPRPWPVPRP	0.12
RRIRRRPPRLPRPRPRPRAIPRP	0.405

Sequence	shrunken log2 fold change
RRIRTRPPRLPRPRPRPLNKPRP	-0.225
RRIRKRPPRLPRPRPRPSMLPRP	-0.0569
RRIRVRPPRLPRPRPRPLLNPRP	0.159
RRIRLRPPRLPRPRPRPADQPRP	0.0203
RRIRKRPPRLPRPRPRPTWYPRP	-0.0991
RRIRPRPPRLPRPRPRPIQVPRP	0.0596
RRIRNRPPRLPRPRPRPCQKPRP	0.00489
RRIRSRPPRLPRPRPRPYTRPRP	-0.304
RRIRARPPRLPRPRPRPVITPRP	-0.021
RRIRIRPPRLPRPRPRPMAWPRP	0.0272
RRIRWRPPRLPRPRPRPHNAPRP	-0.0847
RRIRGRPPRLPRPRPRPPIPPRP	0.449
RRIRMRPPRLPRPRPRPQGKPRP	-0.0118
RRIRCRPPRLPRPRPRPSNDPRP	-0.451
RRIRLRPPRLPRPRPRPMTLPRP	-0.156
RRIRARPPRLPRPRPRPVHPPRP	0.217
RRIRARPPRLPRPRPRPEKSPRP	1.01
RRIRWRPPRLPRPRPRPPIYPRP	0.0337
RRIRMRPPRLPRPRPRPYDEPRP	0.0491
RRIRNRPPRLPRPRPRPKNYPRP	-0.752
RRIRRRPPRLPRPRPRPSLDPRP	0.34
RRIRFRPPRLPRPRPRPIGRPRP	0.00988
RRIRMRPPRLPRPRPRPQAPPRP	0.718
RRIRKRPPRLPRPRPRPIEWPRP	0.404
RRIRSRPPRLPRPRPRPSKKPRP	-0.334

Sequence	shrunken log2 fold change
RRIRRRPPRLPRPRPRPETRPRP	0.644
RRIRSRPPRLPRPRPRPMCRPRP	-0.147
RRIRQRPPRLPRPRPRPAFHPRP	-0.0711
RRIRLRPPRLPRPRPRPMCTPRP	-0.0698
RRIRERPPRLPRPRPRPRPCPRP	-0.0205
RRIRNRPPRLPRPRPRPWMCPRP	-1.23
RRIRGRPPRLPRPRPRPTTEPRP	0.836
RRIRSRPPRLPRPRPRPEPAPRP	0.912
RRIRNRPPRLPRPRPRPHPWPRP	0.0589
RRIRVRPPRLPRPRPRPGIKPRP	0.174
RRIRARPPRLPRPRPRPLPRPRP	0.768
RRIRKRPPRLPRPRPRPDITPRP	2.24
RRIRNRPPRLPRPRPRPCIEPRP	-0.117
RRIRRRPPRLPRPRPRPTVDPRP	0.615
RRIRHRPPRLPRPRPRPRNSPRP	-0.05
RRIRNRPPRLPRPRPRPHKEPRP	0.0155
RRIRWRPPRLPRPRPRPEFSPRP	0.109
RRIRQRPPRLPRPRPRPFMFPRP	-0.144
RRIRLRPPRLPRPRPRPRDHPRP	0.0215
RRIRIRPPRLPRPRPRPFAWPRP	0.00684
RRIRYRPPRLPRPRPRPKHEPRP	-0.0393
RRIRYRPPRLPRPRPRPYGTPRP	-0.0957
RRIRVRPPRLPRPRPRPPEKPRP	0.0629
RRIRDRPPRLPRPRPRPRWTPRP	0.289
RRIRDRPPRLPRPRPRPRVRPRP	0.106

Sequence	shrunken log2 fold change
RRIRPRPPRLPRPRPRPIIMPRP	0.195
RRIRWRPPRLPRPRPRPRPHPRP	0.408
RRIRDRPPRLPRPRPRPSDEPRP	0.406
RRIRHRPPRLPRPRPRPVLYPRP	-0.317
RRIRCRPPRLPRPRPRPLTAPRP	-0.119
RRIRKRPPRLPRPRPRPAWGPRP	0.694
RRIRDRPPRLPRPRPRPTHRPRP	0.0815
RRIRKRPPRLPRPRPRPDVDPRP	1.8
RRIRVRPPRLPRPRPRPCISPRP	0.00333
RRIRTRPPRLPRPRPRPVFIPRP	-0.475
RRIRRRPPRLPRPRPRPVYGPRP	-0.0668
RRIRKRPPRLPRPRPRPHWGPRP	0.209
RRIRHRPPRLPRPRPRPEPNPRP	0.0235
RRIRIRPPRLPRPRPRPRDVPRP	0.000408
RRIRRRPPRLPRPRPRPWACPRP	0.0634
RRIRPRPPRLPRPRPRPRLCPRP	0.646
RRIRNRPPRLPRPRPRPQKMPRP	-0.134
RRIRCRPPRLPRPRPRPGVHPRP	-0.108
RRIRGRPPRLPRPRPRPPMLPRP	0.555
RRIRYRPPRLPRPRPRPWFQPRP	-0.00061
RRIRWRPPRLPRPRPRPSAWPRP	0.319
RRIRMRPPRLPRPRPRPWIVPRP	0.0842
RRIRQRPPRLPRPRPRPEFGPRP	-0.0374
RRIRDRPPRLPRPRPRPKASPRP	0.224
RRIRIRPPRLPRPRPRPMIQPRP	0.102

Sequence	shrunken log2 fold change
RRIRTRPPRLPRPRPRPKEIPRP	-1.03
RRIRLRPPRLPRPRPRPQCVPRP	0.0615
RRIRLRPPRLPRPRPRPIRQPRP	-0.0246
RRIRNRPPRLPRPRPRPDDFPRP	-0.00663
RRIRKRPPRLPRPRPRPQENPRP	0.256
RRIRMRPPRLPRPRPRPHTIPRP	0.0593
RRIRLRPPRLPRPRPRPLSVPRP	-0.0123
RRIRFRPPRLPRPRPRPPMTPRP	-0.0559
RRIRLRPPRLPRPRPRPYGVPRP	-0.107
RRIRTRPPRLPRPRPRPVFNPRP	-0.65
RRIRGRPPRLPRPRPRPRVYPRP	0.35
RRIRVRPPRLPRPRPRPKMFPRP	-0.056
RRIRTRPPRLPRPRPRPLYIPRP	-0.998
RRIRARPPRLPRPRPRPTPPPRP	0.811
RRIRVRPPRLPRPRPRPLFWPRP	0.139
RRIRCRPPRLPRPRPRPQEMPRP	-0.627
RRIRGRPPRLPRPRPRPSIAPRP	0.669
RRIRIRPPRLPRPRPRPGDMPRP	-0.763
RRIRARPPRLPRPRPRPGIDPRP	0.652
RRIRARPPRLPRPRPRPPIQPRP	0.431
RRIRDRPPRLPRPRPRPRLYPRP	-0.0462
RRIRKRPPRLPRPRPRPVACPRP	-0.0228
RRIRARPPRLPRPRPRPKEQPRP	-0.111
RRIRDRPPRLPRPRPRPYKVPRP	-0.687
RRIRTRPPRLPRPRPRPKWCPRP	0.00669

Sequence	shrunken log2 fold change
RRIRERPPRLPRPRPRPCFIPRP	-0.73
RRIRERPPRLPRPRPRPTEQPRP	-0.00926
RRIRNRPPRLPRPRPRPENHPRP	-0.124
RRIRNRPPRLPRPRPRPCKEPRP	-0.451
RRIRRRPPRLPRPRPRPMSPPRP	-0.185
RRIRSRPPRLPRPRPRPLGEPRP	0.175
RRIRFRPPRLPRPRPRPYRDPRP	-0.0081
RRIRFRPPRLPRPRPRPQCYPRP	0.04
RRIRCRPPRLPRPRPRPFVHPRP	-0.891
RRIRKRPPRLPRPRPRPDSNPRP	0.0348
RRIRFRPPRLPRPRPRPMLSPRP	-0.0375
RRIRHRPPRLPRPRPRPYTNPRP	-0.461
RRIRQRPPRLPRPRPRPNNKPRP	-0.721
RRIRTRPPRLPRPRPRPTVEPRP	-0.152
RRIRVRPPRLPRPRPRPPDPPRP	0.342
RRIRWRPPRLPRPRPRPNYLPRP	-1
RRIRQRPPRLPRPRPRPRHFPRP	0.0257
RRIRPRPPRLPRPRPRPADKPRP	0.0949
RRIRYRPPRLPRPRPRPWQAPRP	-0.0293
RRIRTRPPRLPRPRPRPLCSPRP	-0.27
RRIRVRPPRLPRPRPRPKIIPRP	-0.645
RRIRVRPPRLPRPRPRPAAWPRP	0.136
RRIRKRPPRLPRPRPRPQIPPRP	-0.0346
RRIRCRPPRLPRPRPRPCLPPRP	-0.439
RRIRDRPPRLPRPRPRPEVEPRP	1.68
